# Results from FireProtDB (doi:10.1093/protein/7.6.777).
# B1: Subtilisin-chymotrypsin inhibitor-2A wild type, P01053 (protein)
# chain: MSSVEKKPEGVNTGAGDRHNLKTEWPELVGKSVEEAKKVILQDKPEAQIIVLPVGTIVTMEYRIDRVRLFVDKLDNIAQVPRVG
# Conditions: Hordeum vulgare, whole UniProt chain shown
# [1] = pH 3, Thermal, DSC, glycine-HCl 10 mM
# [2] = pH 6.25, 25 °C, GdnHCl, Fluorescence, MES 50 mM
protein,measurement,setting,value
B1,Tm,[1],63.8 °C
same,unfolding enthalpy (calorimetric),[1],251 kJ/mol
same,denaturant m value,[2],1.9 kcal/mol/M
same,denaturant midpoint (higher = more stable),[2],4 M
same,unfolding free energy,[2],31.8 kJ/mol
